Results from patent US20190300590A1 (PROTAGONIST THERAPEUTICS, published 2019).
*1 amine or outer side, *2 acyl side, *3 side chain or, on linkers, in order; H or OH if unused. Bridges are numbered along the chain shown (N, C = ends). Primed or numbered codes have the meaning given here. [ ]: non-standard residue; d: D form. Phe(4-(2-acetylaminoethoxy))″ = 4-(2-acetylaminoethoxy)phenylalanine, CC(=O)NCCOc1ccc(C[C@H](N[*:1])C(=O)[*:2])cc1; 2Nal = N[C@@H](Cc1ccc2ccccc2c1)C(=O)O; AEF = NCCOc1ccc(C[C@H](N)C(=O)O)cc1; Pen = CC(C)(S)[C@H](N)C(=O)O; αMeK = C[C@](N)(CCCCN)C(=O)O; Dap = NC[C@H](N)C(=O)O; Aib = CC(C)(N)C(=O)O

T1: IL-23R on DB cells (human, UniProt Q5VWK5 24-629)
T1 sequence (looked up): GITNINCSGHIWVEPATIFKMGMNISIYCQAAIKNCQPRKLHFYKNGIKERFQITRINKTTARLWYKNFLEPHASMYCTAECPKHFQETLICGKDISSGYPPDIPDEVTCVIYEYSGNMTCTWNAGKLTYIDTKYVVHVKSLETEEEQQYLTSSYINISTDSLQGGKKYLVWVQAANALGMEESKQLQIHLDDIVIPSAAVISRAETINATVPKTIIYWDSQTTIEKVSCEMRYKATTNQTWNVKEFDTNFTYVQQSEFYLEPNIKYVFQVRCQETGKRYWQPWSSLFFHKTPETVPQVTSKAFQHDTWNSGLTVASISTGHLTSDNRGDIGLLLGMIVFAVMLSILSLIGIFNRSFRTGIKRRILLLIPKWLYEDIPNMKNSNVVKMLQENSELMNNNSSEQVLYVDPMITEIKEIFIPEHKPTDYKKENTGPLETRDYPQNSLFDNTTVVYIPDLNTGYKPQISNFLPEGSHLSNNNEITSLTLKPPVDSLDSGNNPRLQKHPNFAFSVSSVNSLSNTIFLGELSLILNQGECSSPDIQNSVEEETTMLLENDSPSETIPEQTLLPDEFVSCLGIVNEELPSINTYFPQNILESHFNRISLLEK

B1: Ac-[Pen]-NTWQ-[Pen]-[Phe(4-OMe)]-[2-Nal]-[Aib]-[Lys(Ac)]-NQ-NH2 (peptide)
peptide: XNTWQXFXXKNQ
modifications: Ac; Pen-Pen disulfide; Phe(4-OMe); 2-Nal; Aib; Lys(Ac); NH2
B2: Ac-[Pen]-NTWQ-[Pen]-[Phe(4-OMe)]-[2-Nal]-[Aib]-[Lys(Ac)]-NA-NH2 (peptide)
peptide: XNTWQXFXXKNA
modifications: Ac; Pen-Pen disulfide; Phe(4-OMe); 2-Nal; Aib; Lys(Ac); NH2
B3: Ac-[Pen]-QTWQ-[Pen]-[Phe(4-OMe)]-[2-Nal]-[Aib]-ENN-NH2 (peptide)
peptide: XQTWQXFXXENN
modifications: Ac; Pen-Pen disulfide; Phe(4-OMe); 2-Nal; Aib; NH2
B4: Ac-[Pen]-TTWQ-[Pen]-[Phe[4-(2-aminoethoxy)]-[2-Nal]-[Aib]-[Lys(Ac)]-NN-NH2 (peptide)
peptide: Ac-[Pen]TTWQ[Pen][AEF][2Nal][Aib]K(Ac)NN-NH2
modifications: disulfide 1-6 (inferred)
B5: Ac-[Pen]-QTWQ-[Pen]-[Phe[4-(2-aminoethoxy)]-[2-Nal]-[hLeu]-ENA-NH2 (peptide)
peptide: XQTWQXFXLENA
modifications: Ac; Pen-Pen disulfide; Phe[4-(2-aminoethoxy)]; 2-Nal; hLeu; NH2
B6: Ac-[Pen]-QTWQ-[Pen]-Y-[2-Nal]-[α-MeOrn]-ENG-NH2 (peptide)
peptide: XQTWQXYXXENG
modifications: Ac; Pen-Pen disulfide; 2-Nal; α-MeOrn; NH2
B7: Ac-[Pen]-QTWQ-[Pen]-[Phe[4-(2-aminoethoxy)]-[2-Nal]-Aib-[Lys(Ac)]-NN-NH2 (peptide)
peptide: XQTWQXFXXKNN
modifications: Ac; Pen-Pen disulfide; Phe[4-(2-aminoethoxy)]; 2-Nal; Aib; Lys(Ac); NH2
B8: Ac-[Pen]-NTWQ-[Pen]-[Phe[4-(2-aminoethoxy)]-[2-Nal]-[Aib]-[Lys(Ac)]-NN-NH2 (peptide)
peptide: XNTWQXFXXKNN
modifications: Ac; Pen-Pen disulfide; Phe[4-(2-aminoethoxy)]; 2-Nal; Aib; Lys(Ac); NH2
B9: Ac-[Pen]-NTWQ-[Pen]-[Phe(4-OMe)]-[2-Nal]-[Aib]-[Lys(Ac)]-N-[βAla]-NH2 (peptide)
peptide: XNTWQXFXXKNA
modifications: Ac; Pen-Pen disulfide; Phe(4-OMe); 2-Nal; Aib; Lys(Ac); βAla; NH2
B10: Ac-[Pen]-NTWQ-[Pen]-[Phe(4-OMe)]-[2-Nal]-[Aib]-ENN-NH2 (peptide)
peptide: XNTWQXFXXENN
modifications: Ac; Pen-Pen disulfide; Phe(4-OMe); 2-Nal; Aib; NH2
B11: Ac-[Pen]-NTWQ-[Pen]-[Phe(4-OMe)]-[2-Nal]-[Aib]-[Lys(Ac)]-NN-NH2 (peptide)
peptide: XNTWQXFXXKNN
modifications: Ac; Pen-Pen disulfide; Phe(4-OMe); 2-Nal; Aib; Lys(Ac); NH2
B12: Ac-[Pen]-NTWQ-[Pen]-[Phe[4-(2-aminoethoxy)]-[2-Nal]-[Aib]-[Lys(Ac)]-NA-NH2 (peptide)
peptide: XNTWQXFXXKNA
modifications: Ac; Pen-Pen disulfide; Phe[4-(2-aminoethoxy)]; 2-Nal; Aib; Lys(Ac); NH2
B13: Ac-[Pen]-NTWQ-[Pen]-[Phe[4-(2-aminoethoxy)]-[2-Nal]-[Aib]-[Lys(Ac)]-NQ-NH2 (peptide)
peptide: XNTWQXFXXKNQ
modifications: Ac; Pen-Pen disulfide; Phe[4-(2-aminoethoxy)]; 2-Nal; Aib; Lys(Ac); NH2
B14: Ac-[Pen]-NTWQ-[Pen]-[Phe[4-(2-aminoethoxy)]-[2-Nal]-[hLeu]-ENA-NH2 (peptide)
peptide: XNTWQXFXLENA
modifications: Ac; Pen-Pen disulfide; Phe[4-(2-aminoethoxy)]; 2-Nal; hLeu; NH2
B15: Ac-[Pen]-[Dap]-TWQ-[Pen]-[Phe[4-(2-aminoethoxy)]-[2-Nal]-[α-MeLys]-ENG-NH2 (peptide)
peptide: Ac-[Pen][Dap]TWQ[Pen][AEF][2Nal][αMeK]ENG-NH2
modifications: disulfide 1-6 (inferred)
B16: Ac-[Pen]-TTWQ-[Pen]-[Phe[4-(2-aminoethoxy)]-[2-Nal]-[Aib]-[Lys(Ac)]-NQ-NH2 (peptide)
peptide: Ac-[Pen]TTWQ[Pen][AEF][2Nal][Aib]K(Ac)NQ-NH2
modifications: disulfide 1-6 (inferred)
B17: Ac-[Pen]-QTWQ-[Pen]-[Phe[4-(2-acetylaminoethoxy)]-[2-Nal]-[Aib]-ENN-NH2 (peptide)
peptide: XQTWQXFXXENN
modifications: Ac; Pen-Pen disulfide; Phe[4-(2-acetylaminoethoxy)]; 2-Nal; Aib; NH2
B18: Ac-[Pen]-Dap(Ac)TWQ-[Pen]-[Phe[4-(2-acetylaminoethoxy)]-[2-Nal]-[α-MeLys(Ac)]-ENG-NH2 (peptide)
peptide: Ac-[Pen][Dap](Ac)TWQ[Pen][Phe(4-(2-acetylaminoethoxy))″][2Nal][αMeK](Ac)ENG-NH2
modifications: disulfide 1-6 (inferred)
B19: Ac-[Pen]-QTWQ-[Pen]-[Phe(4-OMe)]-[2-Nal]-[Aib]-[Lys(Ac)]-NN-NH2 (peptide)
peptide: XQTWQXFXXKNN
modifications: Ac; Pen-Pen disulfide; Phe(4-OMe); 2-Nal; Aib; Lys(Ac); NH2
B20: Ac-[Pen]-QTWQ-[Pen]-[Phe[4-(2-acetylaminoethoxy)]-[2-Nal]-[Aib]-[Lys(Ac)]-NN-NH2 (peptide)
peptide: XQTWQXFXXKNN
modifications: Ac; Pen-Pen disulfide; Phe[4-(2-acetylaminoethoxy)]; 2-Nal; Aib; Lys(Ac); NH2
B21: Ac-[Pen]-QTWQ-[Pen]-[2-Nal]-[2-Nal]-[α-MeLys]-ENG-NH2 (peptide)
peptide: Ac-[Pen]QTWQ[Pen][2Nal][2Nal][αMeK]ENG-NH2
modifications: disulfide 1-6
SMILES: CC(=O)N[C@@H]1C(=O)N[C@@H](CCC(N)=O)C(=O)N[C@@H]([C@@H](C)O)C(=O)N[C@@H](Cc2c[nH]c3ccccc23)C(=O)N[C@@H](CCC(N)=O)C(=O)N[C@H](C(=O)N[C@@H](Cc2ccc3ccccc3c2)C(=O)N[C@@H](Cc2ccc3ccccc3c2)C(=O)N[C@@](C)(CCCCN)C(=O)N[C@@H](CCC(=O)O)C(=O)N[C@@H](CC(N)=O)C(=O)NCC(N)=O)C(C)(C)SSC1(C)C
B22: Ac-[Pen]-QTWQ-[Pen]-[Phe[4-(2-aminoethoxy)]-[2-Nal]-[Aib]-ENN-NH2 (peptide)
peptide: XQTWQXFXXENN
modifications: Ac; Pen-Pen disulfide; Phe[4-(2-aminoethoxy)]; 2-Nal; Aib; NH2

molecular target: T1, IL-23R on DB cells; assay: cell-based or functional assay

pStat3 HTRF IC50 | Binder
< 10 nM | B1
< 10 nM | B2
< 10 nM | B3
< 10 nM | B4
10 to 25 nM | B5
10 to 25 nM | B6
< 10 nM | B7
< 10 nM | B8
< 10 nM | B9
< 10 nM | B10
< 10 nM | B11
< 10 nM | B12
< 10 nM | B13
< 10 nM | B14
< 10 nM | B15
< 10 nM | B16
< 10 nM | B17
< 10 nM | B18
< 10 nM | B19
< 10 nM | B20
10 to 25 nM | B21
< 10 nM | B22
